# Positions of bridges follow the written chain, without caps; N, C: chain ends.
# B1: Compound 3A (peptide)
# peptide: Ac-AGSCYCSGPPRFECWCYETEGTGGGK(N‑(4-fluorobenzylidene)aminooxyacetyl)-NH2
# modifications: disulfide 6-14, 4-16
# Molecular target: human c-Met receptor (human, UniProt P08581 25-1390)
# Test: cell-based or functional assay
# human c-Met receptor, sequence (P08581 25-1390): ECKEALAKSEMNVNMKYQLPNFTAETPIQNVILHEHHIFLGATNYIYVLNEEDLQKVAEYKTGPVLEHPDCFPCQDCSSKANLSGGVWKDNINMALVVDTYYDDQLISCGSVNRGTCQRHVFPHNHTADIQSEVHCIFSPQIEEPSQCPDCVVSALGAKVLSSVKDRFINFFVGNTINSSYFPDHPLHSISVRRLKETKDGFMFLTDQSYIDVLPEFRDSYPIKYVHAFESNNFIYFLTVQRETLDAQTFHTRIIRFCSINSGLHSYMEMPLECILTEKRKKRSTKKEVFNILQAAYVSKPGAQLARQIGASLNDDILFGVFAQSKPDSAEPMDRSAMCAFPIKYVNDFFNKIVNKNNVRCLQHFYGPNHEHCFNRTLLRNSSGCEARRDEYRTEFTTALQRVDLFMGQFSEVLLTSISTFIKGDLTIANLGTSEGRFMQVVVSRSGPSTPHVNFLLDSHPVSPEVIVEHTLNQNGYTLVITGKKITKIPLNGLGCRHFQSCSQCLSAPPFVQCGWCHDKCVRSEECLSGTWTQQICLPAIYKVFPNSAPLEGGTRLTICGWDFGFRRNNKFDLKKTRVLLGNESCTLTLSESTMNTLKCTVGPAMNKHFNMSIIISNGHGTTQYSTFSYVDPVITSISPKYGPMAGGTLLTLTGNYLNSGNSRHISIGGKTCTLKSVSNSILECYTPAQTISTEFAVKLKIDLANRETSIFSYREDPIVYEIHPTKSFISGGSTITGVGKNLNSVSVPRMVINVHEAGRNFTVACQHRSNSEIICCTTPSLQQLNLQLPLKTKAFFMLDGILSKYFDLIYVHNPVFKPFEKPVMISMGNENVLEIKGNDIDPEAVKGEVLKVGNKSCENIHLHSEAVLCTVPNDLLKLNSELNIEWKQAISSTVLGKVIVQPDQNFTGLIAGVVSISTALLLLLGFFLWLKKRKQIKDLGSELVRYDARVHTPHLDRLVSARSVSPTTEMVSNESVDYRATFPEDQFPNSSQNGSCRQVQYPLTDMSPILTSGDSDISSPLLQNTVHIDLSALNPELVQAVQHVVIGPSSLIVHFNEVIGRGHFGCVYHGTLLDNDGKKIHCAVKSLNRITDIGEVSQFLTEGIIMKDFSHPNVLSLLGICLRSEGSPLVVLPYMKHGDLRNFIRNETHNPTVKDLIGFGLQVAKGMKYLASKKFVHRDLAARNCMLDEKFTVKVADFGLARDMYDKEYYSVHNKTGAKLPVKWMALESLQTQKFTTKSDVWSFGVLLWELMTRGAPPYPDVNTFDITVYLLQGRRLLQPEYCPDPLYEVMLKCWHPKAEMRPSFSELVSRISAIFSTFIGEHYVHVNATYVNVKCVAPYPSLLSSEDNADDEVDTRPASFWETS
binder,measurement,value
B1,HT-29 tumour uptake of Compound 3B with 1000-fold excess unlabelled peptide,1.1 % id/g
same,reduction in HT-29 tumour uptake of Compound 3B with 1000-fold excess unlabelled peptide,40%

# — patent publication US9533059 (GE HEALTHCARE, dated 2017)
